Results on two molecules are retold here after patent US20180043012A1 (CSL BEHRING RECOMBINANT FACILITY, published 2018).

In test [1] the target is T1, purified monomeric human VWF (von Willebrand factor) (human, UniProt P04275 764-2813, limits assumed).
T1 construct: Analyte in the mobile phase in all SPR experiments; Background text says mature plasma VWF is the 2050-residue polypeptide; also called VWF monomers; monomeric VWF
The test can be described thus: SPR, MGL1 immobilized on CM3 chip, fit of the dissociation phase alone. (In general: SPR reads the build-up and loss of mass on a sensor chip optically.)

Test [2] deals with T1, purified monomeric human VWF (von …). The test can be described thus: SPR, CLEC10A immobilized on CM3 chip, fit of the dissociation phase alone. The protocol:
Interaction analysis cycles consisted of a 5 min sample injection phase. In this association phase, VWF bound to CLEC10A immobilized on the surface, and increased the surface mass. This phase was followed by a dissociation phase of 17 min in running buffer. In the dissociation phase, the sample was replaced by running buffer and the dissociated VWF was removed from the surface, resulting in a decreased surface mass. All samples were tested as repeat determination. […] Although kinetic data were analyzed using Biacore T200 Evaluation Software Version 1.0 (GE Healthcare Biosciences, Uppsala, Sweden), the data set was only used for information purpose.
SPR was predominantly used as mass detector. An interaction of VWF with CLEC10A was detected by an increase in accumulating mass and specific binding was identified by subtracting the binding response recorded from the control surface, followed by subtracting an average of the buffer blank injections. A time point was positioned 20 seconds after the end of sample injection and was evaluated as representative for a stable protein-ligand interaction, which was of interest. […] Furthermore, testing was performed at least in duplicate and the response was calculated relative to the baseline in each case. […] Moreover, dissociation rate constants (off-rate) were calculated by fitting the dissociation phase alone. […]

B1: mouse MGL1 (CLEC10A orthologous mouse receptor protein) (receptor, UniProt P49300 57-304, looked up)
chain: QNSQLRRDLGTLRATLDNTTSKIKAEFQSLDSRADSFEKGISSLKVDVEDHRQELQAGRDLSQKVTSLESTVEKREQALKTDLSDLTDHVQQLRKDLKALTCQLANLKNNGSEVACCPLHWTEHEGSCYWFSESEKSWPEADKYCRLENSHLVVVNSLEEQNFLQNRLANVVSWIGLTDQNGPWRWVDGTDFEKGFKNWAPLQPDNWFGHGLGGGEDCAHITTGGPWNDDVCQRTFRWICEMKLAKES
Regarding B1, the koff in test [1] stood at 0.000406 s⁻¹.

B2: recombinant human CLEC10A, extracellular domain (R&D Systems) (receptor, UniProt Q8IUN9 61-316, looked up)
chain: QNSKFQRDLVTLRTDFSNFTSNTVAEIQALTSQGSSLEETIASLKAEVEGFKQERQAGVSELQEHTTQKAHLGHCPHCPSVCVPVHSEMLLRVQQLVQDLKKLTCQVATLNNNASTEGTCCPVNWVEHQDSCYWFSHSGMSWAEAEKYCQLKNAHLVVINSREEQNFVQKYLGSAYTWMGLSDPEGAWKWVDGTDYATGFQNWKPGQPDDWQGHGLGGGEDCAHFHPDGRWNDDVCQRPYHWVCEAGLGQTSQESH
notes: extracellular domain; also called macrophage Gal-type lectin; CD301
For B2, in test [2], the koff turned out to be 0.00051 s⁻¹.

Broadly, the koff is a measure of how fast the partners let go of each other. Read a high koff as fast dissociation.
